{"source": "the RNAGym collection of RNA variant scans (doi:10.1021/acssynbio.7b00057)", "parents": {"B1": {"name": "Pistol ribozyme (parent)", "chain": "GGGUCGUUGUUCCAUAAUCGCGUGGAUAUGGCACGCAAGUUUCUACCGGGCACCGUAAAUGUCCGACUGGAGCCGUUCGGGCGGCUAUAAACAGACCUCAGGCCCGAAGCGUGGCGGCACCUGCCGCCGGUGGUAAAAAAGAUCGGAAGAGCACACGUCU"}}, "data": [{"variants_of": "B1", "assay": "aptazyme ON/OFF ratio, guanine; higher = stronger switching; co-transcriptional cleavage with and without guanine", "values": [{"variant": "GGGUCGUGAACUAAUAAUCGCGUGGAUAUGGCACGCAAGUUUCUACCGGGCACCGUAAAUGUCCGACUGGAGCCGUUCGGGCGGCUAUAAACAGACCUCAGGCCCGAAGCGUGGCGGCACCUGCCGCCGGUGGUAAAAAAGAUCGGAAGAGCACACGUCU", "aptazyme ON/OFF ratio": 1.18}, {"variant": "GGGUCGUGAACUUAUAAUCGCGUGGAUAUGGCACGCAAGUUUCUACCGGGCACCGUAAAUGUCCGACUGGAGCCGUUCGGGCGGCUAUAAACAGACCUCAGGCCCGAAGCGUGGCGGCACCUGCCGCCGGUGGUAAAAAAGAUCGGAAGAGCACACGUCU", "aptazyme ON/OFF ratio": 1.07}, {"variant": "GGGUCGUGAACUGAUAAUCGCGUGGAUAUGGCACGCAAGUUUCUACCGGGCACCGUAAAUGUCCGACUGGAGCCGUUCGGGCGGCUAUAAACAGACCUCAGGCCCGAAGCGUGGCGGCACCUGCCGCCGGUGGUAAAAAAGAUCGGAAGAGCACACGUCU", "aptazyme ON/OFF ratio": 1.23}, {"variant": "GGGUCGUGACUCCAUAAUCGCGUGGAUAUGGCACGCAAGUUUCUACCGGGCACCGUAAAUGUCCGACUGGAGCCGUUCGGGCGGCUAUAAACAGACCUCAGGCCCGAAGCGUGGCGGCACCUGCCGCCGGUGGUAAAAAAGAUCGGAAGAGCACACGUCU", "aptazyme ON/OFF ratio": 2.29}, {"variant": "GGGUCGUGAAGCAAUAAUCGCGUGGAUAUGGCACGCAAGUUUCUACCGGGCACCGUAAAUGUCCGACUGGAGCCGUUCGGGCGGCUAUAAACAGACCUCAGGCCCGAAGCGUGGCGGCACCUGCCGCCGGUGGUAAAAAAGAUCGGAAGAGCACACGUCU", "aptazyme ON/OFF ratio": 1.23}, {"variant": "GGGUCGUGAAGCUAUAAUCGCGUGGAUAUGGCACGCAAGUUUCUACCGGGCACCGUAAAUGUCCGACUGGAGCCGUUCGGGCGGCUAUAAACAGACCUCAGGCCCGAAGCGUGGCGGCACCUGCCGCCGGUGGUAAAAAAGAUCGGAAGAGCACACGUCU", "aptazyme ON/OFF ratio": 1.06}, {"variant": "GGGUCGUGAAGCGAUAAUCGCGUGGAUAUGGCACGCAAGUUUCUACCGGGCACCGUAAAUGUCCGACUGGAGCCGUUCGGGCGGCUAUAAACAGACCUCAGGCCCGAAGCGUGGCGGCACCUGCCGCCGGUGGUAAAAAAGAUCGGAAGAGCACACGUCU", "aptazyme ON/OFF ratio": 1.07}, {"variant": "GGGUCGUGAAACUAUAAUCGCGUGGAUAUGGCACGCAAGUUUCUACCGGGCACCGUAAAUGUCCGACUGGAGCCGUUCGGGCGGCUAUAAACAGACCUCAGGCCCGAAGCGUGGCGGCACCUGCCGCCGGUGGUAAAAAAGAUCGGAAGAGCACACGUCU", "aptazyme ON/OFF ratio": 1.17}, {"variant": "GGGUCGUGAAGGGAUAAUCGCGUGGAUAUGGCACGCAAGUUUCUACCGGGCACCGUAAAUGUCCGACUGGAGCCGUUCGGGCGGCUAUAAACAGACCUCAGGCCCGAAGCGUGGCGGCACCUGCCGCCGGUGGUAAAAAAGAUCGGAAGAGCACACGUCU", "aptazyme ON/OFF ratio": 1.05}, {"variant": "GGGUCGUGAAGGAAUAAUCGCGUGGAUAUGGCACGCAAGUUUCUACCGGGCACCGUAAAUGUCCGACUGGAGCCGUUCGGGCGGCUAUAAACAGACCUCAGGCCCGAAGCGUGGCGGCACCUGCCGCCGGUGGUAAAAAAGAUCGGAAGAGCACACGUCU", "aptazyme ON/OFF ratio": 1.34}, {"variant": "GGGUCGUGAAGGUAUAAUCGCGUGGAUAUGGCACGCAAGUUUCUACCGGGCACCGUAAAUGUCCGACUGGAGCCGUUCGGGCGGCUAUAAACAGACCUCAGGCCCGAAGCGUGGCGGCACCUGCCGCCGGUGGUAAAAAAGAUCGGAAGAGCACACGUCU", "aptazyme ON/OFF ratio": 1.28}, {"variant": "GGGUCGUGAACGAAUAAUCGCGUGGAUAUGGCACGCAAGUUUCUACCGGGCACCGUAAAUGUCCGACUGGAGCCGUUCGGGCGGCUAUAAACAGACCUCAGGCCCGAAGCGUGGCGGCACCUGCCGCCGGUGGUAAAAAAGAUCGGAAGAGCACACGUCU", "aptazyme ON/OFF ratio": 1.24}, {"variant": "GGGUCGUGAACGGAUAAUCGCGUGGAUAUGGCACGCAAGUUUCUACCGGGCACCGUAAAUGUCCGACUGGAGCCGUUCGGGCGGCUAUAAACAGACCUCAGGCCCGAAGCGUGGCGGCACCUGCCGCCGGUGGUAAAAAAGAUCGGAAGAGCACACGUCU", "aptazyme ON/OFF ratio": 1.21}, {"variant": "GGGUCGUGAACGUAUAAUCGCGUGGAUAUGGCACGCAAGUUUCUACCGGGCACCGUAAAUGUCCGACUGGAGCCGUUCGGGCGGCUAUAAACAGACCUCAGGCCCGAAGCGUGGCGGCACCUGCCGCCGGUGGUAAAAAAGAUCGGAAGAGCACACGUCU", "aptazyme ON/OFF ratio": 1.36}, {"variant": "GGGUCGUGAAGUAAUAAUCGCGUGGAUAUGGCACGCAAGUUUCUACCGGGCACCGUAAAUGUCCGACUGGAGCCGUUCGGGCGGCUAUAAACAGACCUCAGGCCCGAAGCGUGGCGGCACCUGCCGCCGGUGGUAAAAAAGAUCGGAAGAGCACACGUCU", "aptazyme ON/OFF ratio": 1.31}, {"variant": "GGGUCGUGAAGUGAUAAUCGCGUGGAUAUGGCACGCAAGUUUCUACCGGGCACCGUAAAUGUCCGACUGGAGCCGUUCGGGCGGCUAUAAACAGACCUCAGGCCCGAAGCGUGGCGGCACCUGCCGCCGGUGGUAAAAAAGAUCGGAAGAGCACACGUCU", "aptazyme ON/OFF ratio": 1.25}, {"variant": "GGGUCGUGAAGUUAUAAUCGCGUGGAUAUGGCACGCAAGUUUCUACCGGGCACCGUAAAUGUCCGACUGGAGCCGUUCGGGCGGCUAUAAACAGACCUCAGGCCCGAAGCGUGGCGGCACCUGCCGCCGGUGGUAAAAAAGAUCGGAAGAGCACACGUCU", "aptazyme ON/OFF ratio": 1.56}, {"variant": "GGGUCGUGAAGAAAUAAUCGCGUGGAUAUGGCACGCAAGUUUCUACCGGGCACCGUAAAUGUCCGACUGGAGCCGUUCGGGCGGCUAUAAACAGACCUCAGGCCCGAAGCGUGGCGGCACCUGCCGCCGGUGGUAAAAAAGAUCGGAAGAGCACACGUCU", "aptazyme ON/OFF ratio": 1.17}]}]}
